Measurements as given in patent US20160287696A1, “PAN POLLEN IMMUNOGENS AND METHODS AND USES FOR IMMUNE RESPONSE MODULATION” (LA JOLLA INSTITUTE FOR ALLERGY AND IMMUNOLOGY, priority 2013, published 2016).

Tested on: cultured PBMCs of the allergic donors
Assay: ELISPOT of IL-5 or IFNg production by cultured PBMCs of TG allergic donors in response to peptide
Assay type: cell-based, human
Details: for NTGA's containing at least one T cell epitope, Th+ (Col 2): NTGA number given = criterion met, TG allergic donors n=20; for No of PG+ & th+ peptides per NTGA / No of PP & Th+ peptides per NTGA: Table 6; for No of PG+ & th+ peptides per NTGA: PG+ peptides recognized by T cells of grass allergic donors (n=20); for No of PP & Th+ peptides per NTGA: PP peptides recognized by T cells of grass allergic donors (n=20); for # Th+: Table 7, peptides per NTGA recognized by T cells of grass allergic donors (n=20); for PG+ peptides recognized by grass allergic donors: n=20 grass allergic donors, PG+ peptides of the NTGA; for T cell reactivity of sequences contained in the protein: among top pan-pollen NTGA's ranked by number of PP peptides
From the text: Table 1 indicates for each of the 397 PG+ peptides in which non-grass pollen species a matching peptide with either less than 3, less than 2 or zero mismatches are found. The number of TG grass allergic donors (n=20) with an in vitro T cell response to the TG peptide sequence is also shown.
A set of 93 proteins from Timothy grass (TG) pollen and the assembly of 822 peptides (15 mers) predicted to promiscuously bind HLA class II molecules shown in Table 9 and the immune reactivity in allergic donors have been reported in PCT application WO 2013/119863. […] Immune reactivity was determined by the production of IL-5 or IFNg from cultured PBMCs of the allergic donors in response to stimulation with a peptide and IL-5 and IFNg were measured by ELISPOT as described in Oseroff C et al, 2010.
In short, T cell immune reactivity was determined using PBMCs isolated from study participants and stored in liquid nitrogen until further use. For experimental testing, PBMCs were thawed and expanded in vitro with TG pollen extract (50 μg/mL) or the peptide pool ([…]). The TG extract and peptide pools had each been previously titrated to determine optimal stimulation concentrations.
Cytokine production by cultured PBMCs in response to antigen stimulation was measured by ELISPOT. Cells (1×10^5 cells/well) were plated and incubated with peptide (10 μg/mL), the peptide pool (5 μg/mL), or the TG extract (50 μg/mL). Phytohaemagglutinin (10 μg/mL) and medium alone were used as positive and negative controls, respectively. Samples were considered to produce a cytokine if 100 spot-forming cells (SFCs)/10^6 PBMCs were detected, with P .05 and a stimulation index of 2 or more. Criteria for individual peptides were the same except that a minimum of 20 SFCs were required for a sample to be counted as positive.
Table 3 lists the 397 PG+ peptides and indicates for each non-grass pollen species whether a matching peptide with either less than 3, less than 2 or zero mismatches could be detected. The immune reactivity of the TG peptide was assessed as the number of TG grass allergic donors (n=20) having in vitro T cell response against the TG peptide.

| Molecule | immune reactivity (SFC counts in ELISPOT) of highly conserved PG+ peptides derived from the NTGA | NTGA's containing at least one T cell epitope, Th+ (Col 2) | No of PG+ & th+ peptides per NTGA | No of PP & Th+ peptides per NTGA | # Th+ | PG+ peptides recognized by grass allergic donors | T cell reactivity of sequences contained in the protein |
| --- | --- | --- | --- | --- | --- | --- | --- |
| NTGA 24: Phl p wild type sequence, Table 2 (protein, Phleum Pratense) MATKRSVGTLGEADLKGKKVFLRADLNVPLDDAQKITDDTRIRASIPTIKFLLEKGAKVILASHLGRPKGVTPKFSLKPLVPRLSELLGVEVVMANDCIGEEVEKLAAALPEGGVLLLENVRFYKEEEKNDPEFAKKLASVADLYVNDAFGTAHRAHASTEGVTKFLRPSVAGFLMQKELDYLVGAVANPKKPFAAIVGGSKVSSKIGVIESLLAKVDILILGGGMIFTFYKAQGKAVGKSLVEEDKLELATSLIETAKAKGVSLLLPTDVVVADKFAPDAESKTVSADAIPDGWMGLDVGPDSIKTFSEALDTTKTVIWNGPMGVFEFEKFAAGTDAIAKQLADLTGKGVTTIIGGGDSVAAVEKAGLADKMSHISTGGGASLELLEGKPLPGVLALDEA | high immune reactivity | 24 | 11 | 8 | 2 | two | – |
| NTGA 7: Phl p wild type sequence, Table 2 (protein, Phleum Pratense) MAFEKIKVANPIVEMGDEMTRVFWQSIKEKLIFPFLDLDIKYYDLGVLHRDATDDKVTVEAAEATLKYNVAIKCATITPDEDRVKEFNLKQMWRSPNGTIRNIINGTVFREPIICKNVPKLVPGWTKPICIGRHAFGDQYRATDAVLKGPGKLRLVFEGKDETVDLEVFNFTGAGGVALAMYNTDESIQGFAEASMAIAYEKKWPLYLSTKNTILKKYDGRFKDIFQAVYEADWKSKYEAAGIWYEHRLIDDMVAYALKSEGGYVWACKNYDGDVQSDFLAQGFGSLGLMTSVLMCPDGKTIEAEAAHGTVTRHFRVHQKGGETSTNSIASIFAWTRGLAHRAKLDDNARLLDFTQKLEDACVGTVESGKMTKDLALLVHGSSKVTRGDYLNTEEFIDAVAAELQSRLAAN | high immune reactivity | 7 | 9 | 6 | 4 | two | highly T cell reactive sequences |
| NTGA 2: Phl p wild type sequence, Table 2 (protein, Phleum Pratense) MASPALISDTDQWKALQAHVGAIHKTHLRDLMADADRCKALTAEFEGVFLDYSRQQATTETVDKLFKLAEAAKLKEKIAKMFNGDKINSTENRSVLHVALRAPRDAVINSDGVNVVPEVWAVIDKIKQFSETFRSGSWVGATGKPLTNVVSVGIGGSFLGPLFVHTALQTDPEAAESAKGRQLRFLANVDPVDVARSIKDLDPETTLVVVVSKTFTTAETMLNARTIKEWIVSSLGPQAVSKHMIAVSTNLKLVKEFGIDPNNAFAFWDWVGGRYSVCSAVGVLPLSLQYGFPIVQRFLEGASSIDNHFRTASFEKNIPVLLGLLSVWNVSFLGYPARAILPYSQALEKLAPHIQQLSMESNGKGVSIDGVPLPYEAGEIDFGEPGTNGQHSFYQLIHQGRVIPCDFIGVIKSQQPVYLKGETSNHDELMSNFFAQPDALASRKTPAPLRSENVSENLIPHKTFKGNRPSLSFLLSSLSAYEIGQLLAIYEHRIAVQGFIWGINSFDQWGVELGKSLASQVRKQLHASRMEGKPVEGFNPSSASLLARYLAVEPSTPYDTTVLPKV | high immune reactivity | 2 | 15 | 12 | 5 | two | highly T cell reactive sequences |
| NTGA 53: Phl p wild type sequence, Table 2 (protein, Phleum Pratense) MDRNPVAKNAGKFMTLAGVLDYAKASNISGILIGIEHAAYLATRGLDVVDAVSNALIKSGYDKETKQQVFIQSEDPPVLSAFKKFPKFNRVFEIEFDIRDVSKPSVVEIKEFANAVKLRRSSAAQVDGFYLTGFNAVVERLRDADIQVHVGVLKNEFMSLAFDYWADPMVEIATDTWSVLADGLVTEFPSTAAAYFRSPCSDIKRNMSYTIKPGEPGALVDMAAYGALPPAPPPAPVLEPADVHRQPLPLCPTEPMFRTFRCRLPPKETGKNAEYTANLAADG | – | 53 | 3 | 1 | 3 | – | highly T cell reactive sequences |
| NTGA 1: Phl p (Timothy grass pollen) wild type sequence, Table 2 (protein, Phleum Pratense) MAATIQSVKARQIFDSRGNPTVEVDVCCSDGTFARAAVPSGASTGVYEALELRDGGSDYLGKGVLKAVDNVNSIIGPALIGKDPTEQTELDNFMVHQLDGTKNEWGWCKQKLGANAILAVSLAVCKAGALVKKIPLYQHIANLAGNKQLVLPVPAFNVINGGSHAGNKLAMQEFMILPTGASSFKEAMKMGVEVYHNLKSVIKKKYGQDATNVGDEGGFAPNIQENKEGLELLKTAIEKAGYTGKVVIGMDVAASEFYGEKDQTYDLNFKEENNDGSQKISGDSLKNVYKSFVSEYPIVSIEDPFDQDDWVHYAKMTEEIGEQVQIVGDDLLVTNPTRVAKAIAEKSCNALLLKVNQIGSVTESIEAVKMSKRAGWGVMTSHRSGETEDTFIADLAVGLSTGQIKTGAPCRSERLAKYNQLLRIEEELGAAAVYAGLKFRAPVEPY | – | 1 | 5 | 4 | 0 | – | – |
| NTGA 89: Phl p wild type sequence, Table 2 (protein, Phleum Pratense) MSAADKVKPAASPAAEDPAAIAGNISYHAHYSPHFSPLAFGPEPAYFATAESVRDHLLQRWNDTYLHFHKTDPKQTYYLSMEYLQGRALTNAVGNLGITGAYAEAVKKFGYELEALAGQERDMALGNGGLGRLAACFLDSMATLNLPAWGYGLRYRYGLFKQRIAKEGQEEIAEDWLEKFSPWEIVRHDVVYPVRFFGHVEILPDGRRKSAGGEVLNALAYDVPIPGYKTKNAISLRLWDAKASAEDFNLFQFNDGQYESAAQLHSRAQQICAVLYPGDATEEGKLLRLKQQFFLCSASLQDIIFRFKERKSDRVSGKWSEFPSKVAVQMNDTHPTLAIPELMRLLMDEEGLGWDEAWDVTNKTVAYTNHTVLPEALEKWSQSVMRKLLPRQMEIIEEIDKRFREMVISTRKDMEGKLDSMSVLDNSPQKPVVRMANLCVVSAHTVNGVAELHSNILKEELFADYVSIWPKKFQNKTNGITPRRWLRFCNPELSEIVTKWLKTDQWTSNLDLLTGLRKFADDEKLHAEWAAAKLASKKRLAKHVLDATGVTIDPTSLFDIQIKRIHEYKRQLMNILGAVYRYKKLKEMSAEEKQKVTPRTVMVGGKAFATYTNAKRIVKLVNDVGAVVNNDPDVNKYLKVVFIPNYNVSVAEVLIPGSELSQHISTAGMEASGTSNMKFSLNGCVIIGTLDGANVEIREEVGEDNFFLFGAKADQVAGLRKDRENGLFKPDPRFEEAKQYIRSGTFGTYDYTPLLDSLEGNSGFGRGDYFLVGYDFPSYIDAQARVDEAYKDKKRWIKMSILNTAGSGKFSSDRTIDQYAKEIWGITANPVP | – | 89 | 13 | 0 | 4 | two | – |
| NTGA 27: Phl p wild type sequence, Table 2 (protein, Phleum Pratense) MSAYCGKYKDELIKNAAYIGTPGKGILAADESTGTIGKRFASINVENVEDNRRALRELLFTTPGALQHISGVILFEETLYQSSKAGKPFVDILKENNVLPGIKVDKGTVELAGTDKETTTQGHDDLGKRCAKYYEAGARFAKWRAVLKIGPNEPSQLSIDQNAQGLARYAIICQENGLVPIVEPEILVDGPHDIERCAYVTEVVLAACYKALNDQHVLLEGSLLKPNMVTPGSDAKKVAPEVIAEYTVRTLQRTVPPAVPAIVFLSGGQSEEEATVNLNAMNKLQTKKPWFLSFSFGRALQQSTLKAWSGKEENVEKAQKAFLVRCKANSEATLGTYKGDATLGEGASESLHVKDYKY | high immune reactivity | 27 | 5 | 4 | 0 | – | – |
